The results in this text go back to paper PMC8891371.

The target of test [1] is axolotl Melanocortin-4 receptor, N-terminally 3×HA tagged (Ambystoma mexicanum (Mexican axolotl)).
In test [2] the target is axolotl Melanocortin-3 receptor, N-terminally 3×HA tagged (Ambystoma mexicanum (Mexican axolotl)).

“human adrenocorticotropin ACTH (1–24) (peptide)”: in test [1], the cAMP luminescent assay (pCRE-Luc, Dual-Glo) in HEK293T, logEC50; MC4R:MRAP2 plasmid ratio 1:0 is -9.62 log M; the cAMP luminescent assay (pCRE-Luc, Dual-Glo) in HEK293T, logEC50; MC4R:MRAP2 plasmid ratio 1:1 was -10.1 log M; the cAMP luminescent assay (pCRE-Luc, Dual-Glo) in HEK293T, logEC50; MC4R:MRAP2 plasmid ratio 1:3 was -10.1 log M; the cAMP luminescent assay (pCRE-Luc, Dual-Glo) in HEK293T, logEC50; MC4R:MRAP2 plasmid ratio 1:6 is -10.3 log M. In test [2], the cAMP luminescent assay (pCRE-Luc, Dual-Glo) in HEK293T, logEC50; MC3R:MRAP2 plasmid ratio 1:0 was -9.51 log M; the cAMP luminescent assay (pCRE-Luc, Dual-Glo) in HEK293T, logEC50; MC3R:MRAP2 plasmid ratio 1:1 was -9.47 log M; the cAMP luminescent assay (pCRE-Luc, Dual-Glo) in HEK293T, logEC50; MC3R:MRAP2 plasmid ratio 1:3 was -9.4 log M; the cAMP luminescent assay (pCRE-Luc, Dual-Glo) in HEK293T, logEC50; MC3R:MRAP2 plasmid ratio 1:6 was -9.55 log M.
Consider “Human α-melanocyte stimulating hormone (peptide)”, for which, in test [1], the cAMP luminescent assay (pCRE-Luc, Dual-Glo) in HEK293T, logEC50; MC4R:MRAP2 plasmid ratio 1:0 was -9.84 log M; the cAMP luminescent assay (pCRE-Luc, Dual-Glo) in HEK293T, logEC50; MC4R:MRAP2 plasmid ratio 1:1 was -10 log M; the cAMP luminescent assay (pCRE-Luc, Dual-Glo) in HEK293T, logEC50; MC4R:MRAP2 plasmid ratio 1:3 was -9.37 log M; the cAMP luminescent assay (pCRE-Luc, Dual-Glo) in HEK293T, logEC50; MC4R:MRAP2 plasmid ratio 1:6 is -9.06 log M. Besides, in test [2], the cAMP luminescent assay (pCRE-Luc, Dual-Glo) in HEK293T, logEC50; MC3R:MRAP2 plasmid ratio 1:0 was -9.95 log M; the cAMP luminescent assay (pCRE-Luc, Dual-Glo) in HEK293T, logEC50; MC3R:MRAP2 plasmid ratio 1:1 is -9.29 log M; the cAMP luminescent assay (pCRE-Luc, Dual-Glo) in HEK293T, logEC50; MC3R:MRAP2 plasmid ratio 1:3 was -9.04 log M; the cAMP luminescent assay (pCRE-Luc, Dual-Glo) in HEK293T, logEC50; MC3R:MRAP2 plasmid ratio 1:6 is -8.98 log M.
